Values belong to the binder of their own block, whether it stands above or below them.
What was measured:
4H967-AA = target: T1, 4H967-AA; assay: two-hybrid library CCmax; conditions: mean of both orientations;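 further: natural log of median RNA to DNA barcode read ratio; higher means stronger binding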
T1 chain: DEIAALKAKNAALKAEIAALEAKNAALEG

4H883-AA = target: T2, 4H883-AA; assay: two-hybrid library CCmax; conditions: mean of both orientations;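 further: natural log of median RNA to DNA barcode read ratio; higher means stronger binding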
T2 chain: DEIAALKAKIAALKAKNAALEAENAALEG

4H953-AA = target: T3, 4H953-AA; assay: two-hybrid library CCmax; conditions: mean of both orientations;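 further: natural log of median RNA to DNA barcode read ratio; higher means stronger binding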
T3 chain: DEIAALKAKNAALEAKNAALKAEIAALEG

4H717-AA = target: T4, 4H717-AA; assay: two-hybrid library CCmax; conditions: mean of both orientations;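 further: natural log of median RNA to DNA barcode read ratio; higher means stronger binding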
T4 chain: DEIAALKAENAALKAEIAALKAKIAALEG

4H797-AA = target: T5, 4H797-AA; assay: two-hybrid library CCmax
T5 chain: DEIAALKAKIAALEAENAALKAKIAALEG

4H918-AA = target: T6, 4H918-AA; assay: two-hybrid library CCmax; conditions: mean of both orientations
T6 chain: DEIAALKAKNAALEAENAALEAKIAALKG

4H687-AA = target: T7, 4H687-AA; assay: two-hybrid library CCmax
T7 chain: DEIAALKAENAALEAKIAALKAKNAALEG

4H486-AA = target: T8, 4H486-AA; assay: two-hybrid library CCmax; conditions: mean of both orientations
T8 chain: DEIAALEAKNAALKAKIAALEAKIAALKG

4H_APH = target: T9, 4H_APH; assay: two-hybrid library CCmax
T9 chain: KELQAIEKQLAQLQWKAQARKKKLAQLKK

P2-AA-12HAA-R = target: T10, P2-AA-12HAA-R; assay: two-hybrid library CCmax
T10 chain: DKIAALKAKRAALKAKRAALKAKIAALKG

4H_GCN4 = assay: two-hybrid library CCmax
Chain of 4H_GCN4 (chain, as listed by the source): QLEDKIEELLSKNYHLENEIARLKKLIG

4H895-AA = target: T11, 4H895-AA; assay: two-hybrid library CCmax; conditions: mean of both orientations
T11 chain: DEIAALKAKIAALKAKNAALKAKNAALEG

GCN2_T = assay: two-hybrid library CCmax
4H3651-AA = target: T12, 4H3651-AA; assay: two-hybrid library CCmax; conditions: mean of both orientations
T12 chain: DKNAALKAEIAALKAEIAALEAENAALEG

4H535-AA = target: T13, 4H535-AA; assay: two-hybrid library CCmax
T13 chain: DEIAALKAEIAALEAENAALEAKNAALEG

4H_BCR = target: T14, 4H_BCR; assay: two-hybrid library CCmax; conditions: mean of both orientations
T14 chain: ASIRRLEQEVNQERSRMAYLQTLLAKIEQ

4H58-AA = target: T15, 4H58-AA; assay: two-hybrid library CCmax; conditions: mean of both orientations
T15 chain: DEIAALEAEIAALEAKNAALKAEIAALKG

4H465-AA = target: T16, 4H465-AA; assay: two-hybrid library CCmax; conditions: mean of both orientations
T16 chain: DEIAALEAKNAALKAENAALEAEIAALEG

4H3782-AA = target: T17, 4H3782-AA; assay: two-hybrid library CCmax; conditions: mean of both orientations
T17 chain: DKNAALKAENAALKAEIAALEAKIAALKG

4H355-AA = target: T18, 4H355-AA; assay: two-hybrid library CCmax
T18 chain: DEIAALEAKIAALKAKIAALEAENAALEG

4H3705-AA = target: T19, 4H3705-AA; assay: two-hybrid library CCmax; conditions: mean of both orientations
T19 chain: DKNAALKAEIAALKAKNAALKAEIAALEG

P9bH1 = target: T20, P9bH1; assay: two-hybrid library CCNG1
T20 chain: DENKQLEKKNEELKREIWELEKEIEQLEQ

4H331-bH = target: T21, 4H331-bH; assay: two-hybrid library CCNG1
T21 chain: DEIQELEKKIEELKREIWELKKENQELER

4H918-bH = target: T22, 4H918-bH; assay: two-hybrid library CCNG1
T22 chain: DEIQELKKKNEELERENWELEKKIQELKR

4H370-bH = target: T23, 4H370-bH; assay: two-hybrid library CCNG1
T23 chain: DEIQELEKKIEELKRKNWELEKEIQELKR

4H568-bH = target: T24, 4H568-bH; assay: two-hybrid library CCNG1
T24 chain: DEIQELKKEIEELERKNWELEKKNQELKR

4H754-bH = target: T25, 4H754-bH; assay: two-hybrid library CCNG1
T25 chain: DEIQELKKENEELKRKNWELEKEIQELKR

4H967-bH = target: T26, 4H967-bH; assay: two-hybrid library CCNG1
T26 chain: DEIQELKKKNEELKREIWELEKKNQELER

4H4001-bH = target: T27, 4H4001-bH; assay: two-hybrid library CCNG1
T27 chain: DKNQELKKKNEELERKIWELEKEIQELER

4H454-bH = target: T28, 4H454-bH; assay: two-hybrid library CCNG1
T28 chain: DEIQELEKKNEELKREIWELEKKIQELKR

4H3606-bH = target: T29, 4H3606-bH; assay: two-hybrid library CCNG1
T29 chain: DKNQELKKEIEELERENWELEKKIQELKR

4H908-bH = target: T30, 4H908-bH; assay: two-hybrid library CCNG1
T30 chain: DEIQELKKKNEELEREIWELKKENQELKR

4H687-bH = target: T31, 4H687-bH; assay: two-hybrid library CCNG1
T31 chain: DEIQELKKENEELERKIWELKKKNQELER

4H797-bH = target: T32, 4H797-bH; assay: two-hybrid library CCNG1
T32 chain: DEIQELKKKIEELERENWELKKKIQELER

4H953-bH = target: T33, 4H953-bH; assay: two-hybrid library CCNG1
T33 chain: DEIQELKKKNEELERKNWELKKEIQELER

4H3782-bH = target: T34, 4H3782-bH; assay: two-hybrid library CCNG1
T34 chain: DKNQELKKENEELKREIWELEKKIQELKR

4H607-bH = target: T35, 4H607-bH; assay: two-hybrid library CCNG1
T35 chain: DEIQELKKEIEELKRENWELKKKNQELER

4H3843-bH = target: T36, 4H3843-bH; assay: two-hybrid library CCNG1
T36 chain: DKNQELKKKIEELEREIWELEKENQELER

4H72-bH = target: T37, 4H72-bH; assay: two-hybrid library CCNG1
T37 chain: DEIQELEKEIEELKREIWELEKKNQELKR

4H717-bH = target: T38, 4H717-bH; assay: two-hybrid library CCNG1
T38 chain: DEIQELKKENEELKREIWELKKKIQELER

4H338-bH = target: T39, 4H338-bH; assay: two-hybrid library CCNG1
T39 chain: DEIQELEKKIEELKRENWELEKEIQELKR

4H754-bN = target: T40, 4H754-bN; assay: two-hybrid library CCNG1
T40 chain: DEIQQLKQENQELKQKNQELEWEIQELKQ

4H462-bH = target: T41, 4H462-bH; assay: two-hybrid library CCNG1
T41 chain: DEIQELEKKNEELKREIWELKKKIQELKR

4H3855-bH = target: T42, 4H3855-bH; assay: two-hybrid library CCNG1
T42 chain: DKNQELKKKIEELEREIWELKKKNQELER

4H883-bH = target: T43, 4H883-bH; assay: two-hybrid library CCNG1
T43 chain: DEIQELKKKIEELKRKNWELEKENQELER

4H3427-bH = target: T44, 4H3427-bH; assay: two-hybrid library CCNG1
T44 chain: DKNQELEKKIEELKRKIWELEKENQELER

4H3354-bH = target: T45, 4H3354-bH; assay: two-hybrid library CCNG1
T45 chain: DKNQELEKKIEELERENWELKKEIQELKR

- interaction score (4H967-AA): 1.97
- interaction score (4H883-AA): -1.77
- interaction score (4H953-AA): -1.39
- interaction score (4H717-AA): -0.487
- interaction score (4H797-AA): -1.46
- interaction score (4H918-AA): -0.666
- interaction score (4H687-AA): -1.1
Binder: DEIAALKAENAALEAKIAALKAKNAALEG [4H687-AA]

- interaction score (4H486-AA): -0.342
- interaction score (4H_APH): -0.88
- interaction score (P2-AA-12HAA-R): -2.32
- interaction score (4H_GCN4): -1.7
- interaction score (4H895-AA): -0.0681
- interaction score (GCN2_T): -2.04
- interaction score (4H3651-AA): 0.086
- interaction score (4H535-AA): -0.775
- interaction score (4H_BCR): -1.56
- interaction score (4H58-AA): 1.08
- interaction score (4H465-AA): -1.96
- interaction score (4H3782-AA): 0.393
- interaction score (4H355-AA): 0.592
- interaction score (4H3705-AA): -1.7
Binder: DEIAALEAKIAALKAKIAALEAENAALEG [4H355-AA]

- interaction score (P9bH1): -0.482
Binder: DENKQLEKKNEELKREIWELEKEIEQLEQ [P9bH1]

- interaction score (4H331-bH): 1.45
- interaction score (4H918-bH): -1.11
- interaction score (4H370-bH): -0.325
- interaction score (4H568-bH): -1.97
- interaction score (4H754-bH): -1.42
- interaction score (4H967-bH): -0.299
- interaction score (4H4001-bH): 0.891
- interaction score (4H454-bH): -0.0612
- interaction score (4H3606-bH): 0.467
- interaction score (4H908-bH): -0.0604
- interaction score (4H687-bH): -0.531
- interaction score (4H797-bH): -0.0604
- interaction score (4H953-bH): -0.344
- interaction score (4H3782-bH): -0.0752
- interaction score (4H607-bH): -1.89
- interaction score (4H3843-bH): 0.837
- interaction score (4H72-bH): 0.733
- interaction score (4H717-bH): -1.1
- interaction score (4H338-bH): 0.213
- interaction score (4H754-bN): -1.25
- interaction score (4H462-bH): 0.445
- interaction score (4H3855-bH): 0.334
- interaction score (4H883-bH): 0.193
- interaction score (4H3427-bH): 1.6
- interaction score (4H3354-bH): -0.721
Binder: DEIQELEKKIEELKREIWELKKENQELER [4H331-bH]

— article PMC10397247
